According to patent publication US20170211072A1 (COLD SPRING HARBOR LABORATORY, published 2017):
One block for each binder: values may come before it.

Experiments:
p53Ψ [1] = molecular target: T1, p53Ψ (Homo sapiens (Human), UniProt P04637 1-225); assay: co-immunoprecipitation from submitochondrial fractions, immunoblot
T1 construct: Whole p53Ψ isoform expressed ectopically in A549 cells; It was tested in submitochondrial fractions by co-immunoprecipitation; also called p53-psi; p53Ψ isoform

empty GST proteins = molecular target: T2, empty GST proteins (UniProt P08515 1-218 = GST); assay: GST pull-down with purified proteins
T2 construct: Negative control of the pull-down
T2 sequence (P08515 whole entry): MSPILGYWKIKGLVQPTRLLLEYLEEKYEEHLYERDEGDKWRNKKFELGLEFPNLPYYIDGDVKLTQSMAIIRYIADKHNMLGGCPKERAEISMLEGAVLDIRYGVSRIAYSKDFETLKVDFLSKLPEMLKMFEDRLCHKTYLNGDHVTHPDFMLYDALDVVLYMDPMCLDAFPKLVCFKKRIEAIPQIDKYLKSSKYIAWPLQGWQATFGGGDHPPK

p53Ψ [2] = molecular target: T1, p53Ψ; assay: co-immunoprecipitation from submitochondrial fractions with an anti-p53 N-terminal antibody, immunoblot

binding result (p53Ψ [1]): no binding
B1: BAK (other, UniProt Q16611 2-211, looked up)
chain: ASGQGPGPPRQECGEPALPSASEEQVAQDTEEVFRSYVFYRHQQEQEAEGVAAPADPEMVTLPLQPSSTMGQVGRQLAIIGDDINRRYDSEFQTMLQHLQPTAENAYEYFTKIATSLFESGINWGRVVALLGFGYRLALHVYQHGLTGFLGQVTRFVVDFMLHHCIARWIAQRGGWVAALNLGNGPILNVLVVLGVVLLGQFVVRRFFKS

B2: purified p53Ψ (aa 102-243) (other)
chain: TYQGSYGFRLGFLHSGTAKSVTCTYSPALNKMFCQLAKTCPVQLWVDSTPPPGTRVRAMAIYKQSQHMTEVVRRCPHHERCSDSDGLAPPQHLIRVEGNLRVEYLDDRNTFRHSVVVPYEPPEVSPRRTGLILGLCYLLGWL
notes: Purified recombinant fragment used in the GST pull-down; also called recombinant p53Ψ
binding result (empty GST proteins): no binding

binding result (p53Ψ [2]): no binding
B3: MnSOD (enzyme, UniProt P04179 25-222, looked up)
chain: KHSLPDLPYDYGALEPHINAQIMQLHHSKHHAAYVNNLNVTEEKYQEALAKGDVTAQIALQPALKFNGGGHINHSIFWTNLSPNGGGEPKGELLEAIKRDFGSFDKFKEKLTAASVGVQGSGWGWLGFNKERGHLQIAACPNQDPLQGTTGLIPLLGIDVWEHAYYLQYKNVRPDYLKAIWNVINWENVTERYMACKK
notes: Endogenous protein of A549 cells, a human cell line; also called SOD2
